Five molecules from publication PMC6610660 (Structure (London, England : 1993), 2019) can be followed below.

One series deals with ScNatA/Naa50 (Saccharomyces cerevisiae, UniProt P07347+P12945+Q08689). Description: X-ray crystal structure, […] Å. Format: binding. The following applies: site between Naa10 and Naa15.
The next series concerns the target GST-ScNaa50 (Saccharomyces cerevisiae, UniProt Q08689). Briefly: ITC. It is filed as binding. To be noted: 20 °C, pH 7.0, 200 mM NaCl, 1 mM DTT; GST fusion, free GST negative.
The target in another series is T1, SpNatA (Schizosaccharomyces pombe, UniProt O74985+Q9UTI3).
T1 sequence (Q9UTI3 1-156): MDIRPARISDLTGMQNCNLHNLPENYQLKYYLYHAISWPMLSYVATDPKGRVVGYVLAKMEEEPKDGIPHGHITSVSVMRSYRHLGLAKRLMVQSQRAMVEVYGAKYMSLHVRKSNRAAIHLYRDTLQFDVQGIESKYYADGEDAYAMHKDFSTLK
T1 sequence (O74985 1-729): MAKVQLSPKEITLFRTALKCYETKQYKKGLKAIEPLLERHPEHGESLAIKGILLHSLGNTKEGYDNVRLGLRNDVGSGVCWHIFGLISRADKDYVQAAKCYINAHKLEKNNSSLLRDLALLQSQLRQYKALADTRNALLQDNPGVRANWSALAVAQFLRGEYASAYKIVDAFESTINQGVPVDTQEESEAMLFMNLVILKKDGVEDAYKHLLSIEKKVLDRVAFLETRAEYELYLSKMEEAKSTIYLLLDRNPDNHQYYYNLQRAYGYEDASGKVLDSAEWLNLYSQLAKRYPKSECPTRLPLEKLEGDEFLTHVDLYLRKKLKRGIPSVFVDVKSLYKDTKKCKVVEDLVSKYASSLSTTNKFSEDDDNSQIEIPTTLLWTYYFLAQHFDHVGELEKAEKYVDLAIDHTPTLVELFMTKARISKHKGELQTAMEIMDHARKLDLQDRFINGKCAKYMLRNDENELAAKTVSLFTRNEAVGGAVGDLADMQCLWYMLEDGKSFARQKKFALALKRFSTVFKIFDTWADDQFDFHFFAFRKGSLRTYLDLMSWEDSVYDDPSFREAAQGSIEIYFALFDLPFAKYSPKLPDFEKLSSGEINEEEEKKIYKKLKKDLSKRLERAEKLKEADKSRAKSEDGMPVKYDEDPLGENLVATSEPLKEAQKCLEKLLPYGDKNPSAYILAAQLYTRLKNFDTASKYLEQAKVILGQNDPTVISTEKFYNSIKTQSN
Description: ITC. It is filed as binding. To be noted: 20 °C, pH 7.0, 200 mM NaCl, 1 mM DTT; Naa10 site.

Series [1] addresses Schizosaccharomyces pombe Naa50 (S. pombe). Description: differential scanning fluorimetry.
Series [2] deals with Schizosaccharomyces pombe Naa50 labeled with Fluorescein-5-Maleimide (S. pombe). Briefly: fluorescence polarisation. On the technique in general: In fluorescence polarisation assays a small probe gives low polarisation when free and higher when bound to something large.
The target in another series is T2, human Naa50 (human, UniProt Q9GZZ1 1-169).
T2 sequence: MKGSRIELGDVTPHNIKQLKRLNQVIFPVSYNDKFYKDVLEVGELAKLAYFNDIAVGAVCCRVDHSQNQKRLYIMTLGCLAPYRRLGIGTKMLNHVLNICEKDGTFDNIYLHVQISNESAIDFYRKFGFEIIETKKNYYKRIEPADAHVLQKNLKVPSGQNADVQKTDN
Description: differential scanning fluorimetry. (In general: In DSF a fluorescence change marks the thermal transition of the protein.)

ScNatA/Naa50, sequence (Q08689 whole entry, one chain of several, the tested form may be a part): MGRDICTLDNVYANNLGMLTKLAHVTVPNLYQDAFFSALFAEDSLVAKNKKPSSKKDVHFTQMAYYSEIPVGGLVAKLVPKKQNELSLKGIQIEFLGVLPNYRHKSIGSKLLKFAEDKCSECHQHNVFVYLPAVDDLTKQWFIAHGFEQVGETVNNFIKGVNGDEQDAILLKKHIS
GST-ScNaa50, sequence (Q08689 whole entry, the tested form may be a part): as the sequence (Q08689 whole entry, one chain of several, the tested form may be a part) above

In the case of `O=P(O)(O)O[C@H]1[C@H](OP(=O)(O)O)[C@@H](OP(=O)(O)O)[C@H](OP(=O)(O)O)[C@@H](OP(=O)(O)O)[C@H]1OP(=O)(O)O` [IP6], at ScNatA/Naa50, the “X-ray crystal structure, 2.7 Å” value was “Clear electron density for IP6 was visible between Naa10 and Naa15”.
Consider `CC(=O)SCCNC(=O)CCNC(=O)[C@H](O)C(C)(C)COP(=O)(O)OP(=O)(O)OC[C@H]1O[C@@H](n2cnc3c(N)ncnc32)[C@H](O)[C@@H]1OP(=O)(O)O` [acetyl-CoA], for which the ITC result at GST-ScNaa50 is “binding signal was detected by ITC between GST-ScNaa50 and acetyl-CoA”. Also, the dissociation constant entry at SpNatA is given as “Representative ITC curve of acetyl-CoA titrated into SpNatA. The calculated dissociation constant is indicated”.

B1: Schizosaccharomyces pombe NatA (SpNaa15/SpNaa10 complex), wild type (complex)
chain 1: MAKVQLSPKEITLFRTALKCYETKQYKKGLKAIEPLLERHPEHGESLAIKGILLHSLGNTKEGYDNVRLGLRNDVGSGVCWHIFGLISRADKDYVQAAKCYINAHKLEKNNSSLLRDLALLQSQLRQYKALADTRNALLQDNPGVRANWSALAVAQFLRGEYASAYKIVDAFESTINQGVPVDTQEESEAMLFMNLVILKKDGVEDAYKHLLSIEKKVLDRVAFLETRAEYELYLSKMEEAKSTIYLLLDRNPDNHQYYYNLQRAYGYEDASGKVLDSAEWLNLYSQLAKRYPKSECPTRLPLEKLEGDEFLTHVDLYLRKKLKRGIPSVFVDVKSLYKDTKKCKVVEDLVSKYASSLSTTNKFSEDDDNSQIEIPTTLLWTYYFLAQHFDHVGELEKAEKYVDLAIDHTPTLVELFMTKARISKHKGELQTAMEIMDHARKLDLQDRFINGKCAKYMLRNDENELAAKTVSLFTRNEAVGGAVGDLADMQCLWYMLEDGKSFARQKKFALALKRFSTVFKIFDTWADDQFDFHFFAFRKGSLRTYLDLMSWEDSVYDDPSFREAAQGSIEIYFALFDLPFAKYSPKLPDFEKLSSGEINEEEEKKIYKKLKKDLSKRLERAEKLKEADKSRAKSEDGMPVKYDEDPLGENLVATSEPLKEAQKCLEKLLPYGDKNPSAYILAAQLYTRLKNFDTASKYLEQAKVILGQNDPTVISTEKFYNSIKTQSN
chain 2: MDIRPARISDLTGMQNCNLHNLPENYQLKYYLYHAISWPMLSYVATDPKGRVVGYVLAKMEEEPKDGIPHGHITSVSVMRSYRHLGLAKRLMVQSQRAMVEVYGAKYMSLHVRKSNRAAIHLYRDTLQFDVQGIESKYYADGEDAYAMHKDFSTLK
B1 returned a melting temperature of NatA with Naa50 added (NatA alone 37.8 °C) in series [1] of 40.4 °C. Besides, the Kd (usually the concentration at which binding is half-saturated) in series [2] amounted to 17 nM.

B2: human NatA (hNaa15/hNaa10 complex), wild type (complex)
chain 1: MPAVSLPPKENALFKRILRCYEHKQYRNGLKFCKQILSNPKFAEHGETLAMKGLTLNCLGKKEEAYELVRRGLRNDLKSHVCWHVYGLLQRSDKKYDEAIKCYRNALKWDKDNLQILRDLSLLQIQMRDLEGYRETRYQLLQLRPAQRASWIGYAIAYHLLEDYEMAAKILEEFRKTQQTSPDKVDYEYSELLLYQNQVLREAGLYREALEHLCTYEKQICDKLAVEETKGELLLQLCRLEDAADVYRGLQERNPENWAYYKGLEKALKPANMLERLKIYEEAWTKYPRGLVPRRLPLNFLSGEKFKECLDKFLRMNFSKGCPPVFNTLRSLYKDKEKVAIIEELVVGYETSLKSCRLFNPNDDGKEEPPTTLLWVQYYLAQHYDKIGQPSIALEYINTAIESTPTLIELFLVKAKIYKHAGNIKEAARWMDEAQALDTADRFINSKCAKYMLKANLIKEAEEMCSKFTREGTSAVENLNEMQCMWFQTECAQAYKAMNKFGEALKKCHEIERHFIEITDDQFDFHTYCMRKITLRSYVDLLKLEDVLRQHPFYFKAARIAIEIYLKLHDNPLTDENKEHEADTANMSDKELKKLRNKQRRAQKKAQIEEEKKNAEKEKQQRNQKKKKDDDDEEIGGPKEELIPEKLAKVETPLEEAIKFLTPLKNLVKNKIETHLFAFEIYFRKEKFLLMLQSVKRAFAIDSSHPWLHECMIRLFNTAVCESKDLSDTVRTVLKQEMNRLFGATNPKNFNETFLKRNSDSLPHRLSAAKMVYYLDPSSQKRAIELATTLDESLTNRNLQTCMEVLEALYDGSLGDCKEAAEIYRANCHKLFPYALAFMPPGYEEDMKITVNGDSSAEAEELANEI
chain 2: MNIRNARPEDLMNMQHCNLLCLPENYQMKYYFYHGLSWPQLSYIAEDENGKIVGYVLAKMEEDPDDVPHGHITSLAVKRSHRRLGLAQKLMDQASRAMIENFNAKYVSLHVRKSNRAALHLYSNTLNFQISEVEPKYYADGEDAYAMKRDLTQMADELRRHLELKEKGRHVVLGAIENKVESKGNSPPSSGEACREEKGLAAEDSGGDSKDLSEVSETTESTDVKDSSEASDSAS
As to B2, the “melting temperature of NatA with Naa50 added (NatA alone 44 °C)” value in the series with human Naa50 worked out at 46.6 °C.

B3: Saccharomyces cerevisiae NatA (ScNaa15/ScNaa10 complex), wild type (complex)
chain 1: MSRKRSTKPKPAAKIALKKENDQFLEALKLYEGKQYKKSLKLLDAILKKDGSHVDSLALKGLDLYSVGEKDDAASYVANAIRKIEGASASPICCHVLGIYMRNTKEYKESIKWFTAALNNGSTNKQIYRDLATLQSQIGDFKNALVSRKKYWEAFLGYRANWTSLAVAQDVNGERQQAINTLSQFEKLAEGKISDSEKYEHSECLMYKNDIMYKAASDNQDKLQNVLKHLNDIEPCVFDKFGLLERKATIYMKLGQLKDASIVYRTLIKRNPDNFKYYKLLEVSLGIQGDNKLKKALYGKLEQFYPRCEPPKFIPLTFLQDKEELSKKLREYVLPQLERGVPATFSNVKPLYQRRKSKVSPLLEKIVLDYLSGLDPTQDPIPFIWTNYYLSQHFLFLKDFPKAQEYIDAALDHTPTLVEFYILKARILKHLGLMDTAAGILEEGRQLDLQDRFINCKTVKYFLRANNIDKAVEVASLFTKNDDSVNGIKDLHLVEASWFIVEQAEAYYRLYLDRKKKLDDLASLKKEVESDKSEQIANDIKENQWLVRKYKGLALKRFNAIPKFYKQFEDDQLDFHSYCMRKGTPRAYLEMLEWGKALYTKPMYVRAMKEASKLYFQMHDDRLKRKSDSLDENSDEIQNNGQNSSSQKKKAKKEAAAMNKRKETEAKSVAAYPSDQDNDVFGEKLIETSTPMEDFATEFYNNYSMQVREDERDYILDFEFNYRIGKLALCFASLNKFAKRFGTTSGLFGSMAIVLLHATRNDTPFDPILKKVVTKSLEKEYSENFPLNEISNNSFDWLNFYQEKFGKNDINGLLFLYRYRDDVPIGSSNLKEMIISSLSPLEPHSQNEILQYYL
chain 2: MPINIRRATINDIICMQNANLHNLPENYMMKYYMYHILSWPEASFVATTTTLDCEDSDEQDENDKLELTLDGTNDGRTIKLDPTYLAPGEKLVGYVLVKMNDDPDQQNEPPNGHITSLSVMRTYRRMGIAENLMRQALFALREVHQAEYVSLHVRQSNRAALHLYRDTLAFEVLSIEKSYYQDGEDAYAMKKVLKLEELQISNFTHRRLKENEEKLEDDLESDLLE
B3 yielded an increase of the melting temperature of NatA on addition of Naa50 in series [1] of 7.4 °C.
